Key:
[1] = biological target: T1, influenza A virus RNA polymerase (RNAP; PB1-PB2-PA) (Influenza A virus A/NorthernTerritories/60/68 (H3N2)) (UniProt Q910D6+Q91MB1+P03433); assay: smFRET titration
[2] = biological target: T1, influenza A virus RNA polymerase (RNAP; PB1-PB2-PA) (Influenza A virus A/NorthernTerritories/60/68 (H3N2)); assay: fluorescence anisotropy

| Sequence | Kd [1] [nM] | Kd [2] [nM] |
| --- | --- | --- |
| AGCGAAAGCAGGAGUUU / UAAACUCCUUGUUUCUACU [cRNA promoter 5U17/3U4] | 13 |  |
| AGCGAAAGCAGGAGUUU [5' cRNA] |  | 44 |
| UAAACUCCUUGUUUCUACU [3' cRNA] |  | > 1000 |
